In US20240043504A1 (published 2024):
Values joined by “and” are separate entries in the source; they are usually repeats but may differ in a detail not shown here. Identical values can stand only once.

Columns and labels:
[1] = target: receptor binding domain (RBD) portion of the SARS-CoV-2 Spike protein (amino acids Arg319-Phe541) ex (SARS-CoV-2)
[2] = target: SARS-CoV-2 Spike Protein (RBD)(R319-F541).mFc (SARS-CoV-2); test: Luminex, supernatant
[3] = target: SARS-CoV-2 Spike Protein (RBD)(R319-F541).hFc (SARS-CoV-2); test: Luminex, supernatant

| Binder | IC50 [1] | MFI [2] [MFI] | MFI [3] [MFI] |
| --- | --- | --- | --- |
| mAb10964 (antibody, V domains shown) VH: QVQLQESGPGLVKPSETLSLTCTVSGGSINNYYWIWIRQPPGKGLEWIGYIYHSGSTNYNPSLKSRVTISVDTSKNQFSLKVSSVTAADTAVYYCANMVRGVYEDDYWGQGTLVTVSS VL: DIQMTQSPSSLSASVGDRVTITCRASQSISNYLNWYQQKPGKAPKLLIFAASSLRSGVPSRFSGSGSGTDFTLTISSLHPEDFATYYCQQNYNTPLTFGPGTKVDIKR | 0.0683 nM and 0.0625 nM |  |  |
| mAb10965 (antibody, V domains shown) VH: EVQLVESGGGLIQPGGSLRLSCAASVFTVSYNYMSWVRQAPGKGLEWVSVIYSGGSTYYADSVKGRFTISRDNSKNTLYLQMNSLRAEDTAVYYCARALPGWGGSFEYFDYWGQGTLVTVSS VL: not shown | 0.213 nM |  |  |
| mAb10984 (antibody, V domains shown) VH: EVQLVESGGGLVQPGGSLRLSCAASGLTVNRNYMSWVRQAPGKGLEWVSLIYSGGSTYYADSVKGRFTISRDNSKNTLYLQMNSLRLEDTAVYYCARGELGIPYGMDVWGQGTTVTVSS VL: QSVLTQPPSVSAAPGQKVTISCSGSSSNIGNNYVSWYQQLPGTAPKLLIYDNNKRPSGIPDRFSGSKSGTSATLGITGLQTGDEADYYCGTWDSSLSAGVFGGGTKLTVLG | 0.0775 nM |  |  |
| mAb11010 (antibody, V domains shown) VH: QVQLVESGGGVVQPGRSLRLSCAASGFTFSSYGMHWVRQAPGKGLEWVAVISYDGSYKYYADSVKGRFTISRDNSKNTLYLQMNSLRAEDTAVYYCAIDGGTVTTIFDYWGQGTLVTVSS VL: not shown | 0.147 nM |  |  |
| mAb10989 (antibody, V domains shown) VH: QVQLVQSGAEVKKPGASVKVSCKASGYIFTGYYMHWVRQAPGQGLEWMGWINPNSGGANYAQKFQGRVTLTRDTSITTVYMELSRLRFDDTAVYYCARGSRYDWNQNNWFDPWGQGTLVTVSS VL: QSALTQPASVSGSPGQSITISCTGTSSDVGTYNYVSWYQQHPGKAPKLMIFDVSNRPSGVSDRFSGSKSGNTASLTISGLQAEDEADYYCSSFTTSSTVVFGGGTKLTVLG |  | 19600 | 22400 |
| mAb10938 (antibody, V domains shown) VH: EVQLVESGGGLVQPGGSLRLSCAVSGFTVSSNYMSWVRQAPGKGLEWVSLIYSGGSTFYADSVKGRFTISRHNSKNTLYLQMNSLRAEDTAVYYCAREGGYSYDYNYWGQGTLVTVSS VL: DIQMTQSPSSLSASVGDRVTITCQASQDIRNYLNWYQQKPGKAPKLLIYDASNLETGVPSRFSGIGSGTDFTFTISSLQPEDIATYYCQQYDNLPITFGQGTRLEIKR | 0.275 nM |  |  |
| mAb10954 (antibody, V domains shown) VH: EVQLVESGGGLVQPGGSLRLSCAASGITVSSNYMSWVRQAPGKGLEWVSLIYSGGSTYYADSVKGRFTISRDNSKNTLYLQMNSLRVEDTAVYYCARDHGMAAAGYNYWGQGTLVTVSS VL: DIQMTQSPSSLSASVGDRVTITCQASQDINKYLNWYQQKPGKAPKLLIYDASNLETGVPSRFSGSGSGTDFTFTINSLQPEDFATYFCQQYDNLPPAFGQGTKVEIKR | 0.0711 nM |  |  |
| mAb10955 (antibody, V domains shown) VH: EVQLVESGGGLVQPGGSLRVSCAASGFTVSRNYMSWVRQAPGKGLEWVSVIYSGGSTFYADSVKGRFTISRDNSKNTLYLQMNSLRAEDTAIYYCARYIPRFDPWGQGTLVTVSS VL: DIQMTQSPSSLSASVGDRVTITCQASQDISNYLNWFQQKPGRAPKLLIYDASNLETGVPSRFSGSGSGTDFTFTISSLQPEDIATYYCQQYDNLPITFGQGTRLEIKR | 0.141 nM |  |  |
| mAb10967 (antibody, V domains shown) VH: EVQLVESGGGLVQPGGSLRLSCAASGFTVSSNYMSWVRQAPGKGLEWVSVIYPGGSTFYADSVKGRFTISRDNSKNTLYLQMNSLRAEDTAVYYCARDQRDFAWGQGTLVTVSS VL: DIQMTQSPSSLSASVGDRVTITCQASQDISNYLNWYQQKPGKAPKLLIYDASNLETGVPSRFSGSGSGTDFTFTISGLQPEDIATYYCQQYDNLPPTFGQGTRLEIKR | 0.28 nM |  |  |
| mAb10932 (antibody, V domains shown) VH: EVQLVESGGGLVQSGGSLRLSCAASGLTVSSNYMSWVRQAPGKGLEWVSVIYSGGSTFYSDSVKGRFTISRHNSKNTLYLQMNSLRAEDTAVYYCARARGDAFDIWGQGTMVTVSS VL: not shown |  | 30600 | 30600 |
| mAb10957 (antibody, V domains shown) VH: EVQLVESGGGLVQPGGSLRLSCAASGVTVSSNYMSWVRQAPGKGLEWVSVIYSGGSTFYADSVKGRFTISRDNSKNTLFLQMNSLRIEDTAVYYCARDLGPYGMDVWGQGTTVTVSS VL: DIQLTQSPSFLSASVGDRVTITCRASQGISSYLAWYQQKPGKAPKLLIYAASTLQSGVPSRFSGSGSGTQFILTISSLQPEDFATYYCQQLNSYPGFTFGPGTKVDIKR | 0.169 nM |  |  |
| mAb10971 (antibody, V domains shown) VH: EVQLVESGGGLIQPGGSLRLSCAASGVTVSSNYMSWVRQAPGKGLEWVSVIYSGGSTFYSDSVKGRFSISRDNSKNTLYLQMNSLRAEDTAVYYCARDLYYYGMDVWGQGTTVTVSS VL: DIQLTQSPSFLSASVGDRVTITCRASQGISTYLAWYQQKPGKAPKLLIYAASTLQSGVPSRFSGSGSGTEFTLTISSLQPEDFATYYCQQLDSYPGLTFGGGTKVEIKR | 0.149 nM |  |  |
| mAb11006 (antibody, V domains shown) VH: EVQLVESGGGLVQPGGSLRLSCAASGFIVSRNYMSWVRQAPGKGLEWVSVIYSGGSTFYADSVKGRFTISRHNSKNTLYLQMNSLKAEDTAVYYCARELRGYFDYWGQGTLVTVSS VL: DIQLTQSPSFLSASVGDRVTITCWASQGISSYLAWYQQKPGKAPKLLIYAASTLQSGVPSRFSGSGSGTEFTLTISSLQPEDFATYYCQLLNSYPYTFGQGTKLEIKR | 0.22 nM |  |  |
| mAb11008 (antibody, V domains shown) VH: EVQLVESGGGLVQPGGSLRLSCAASGFTVSSNYMTWVRQAPGKGLEWVSVIYSGGSTFYADSVKGRFTISRHNSENTLYLQMNSLRAEDTAVYYCARDLAAAGTDYWGQGALVTVSS VL: DIQLTQSPSFLSASVGDRVTITCWASQGISSYLAWYQQKPGKAPKLLIYAASTLQSGVPSRFSGSGSGTEFTLTISSLQPDDFATYYCQHLNSYLYTFGQGTKLEIKR | 1.49 nM |  |  |
| mAb10966 (antibody, V domains shown) VH: EVQLVESGGGLVQPGGSLRLSCAASGLTVSSNYMSWVRQAPGKGLEWVSVIYSGGSTFYADSVKGRFTISRDNSKNTLYLQMNSLRPEDTAVYYCAREGRIAATGYGMDVWGQGTTVTVSS VL: not shown | 0.16 nM |  |  |
| mAb10982 (antibody, V domains shown) VH: EVQLVESGGGLVQPGGSLRLSCAASGLTVSSNYMSWVRQAPGKGLEWVSVIYSGGTTYYADSVKGRFTISRHNSKNTLSLQMNSLRAEDTAVYYCARGEGANYYGMDVWGQGTTVTVSS VL: QSVLTQPPSVSGAPGQRVTISCTGSSSNIGTGYDVHWYQQLPGTAPKLLIYGNSNRPSGVPDRFSGSKSGTSASLAITGLQAEDEADYYCQSYDSSLSGYVVFGGGTKLTVLG | 0.116 nM |  |  |
| mAb10986 (antibody, V domains shown) VH: EVQLVESGGGLVQPGGSLRLSCAASEFTVSSNYMSWVRQAPGKGLEWVSVIYSGGSTFYADSVKGRFTISRDNSKNTLYLQMNSLRAEDTAVYYCARALPYGDLHFDYWGQGTLVTVSS VL: QSVLTQPPSVSGAPGQRVTISCTGSSSNIGTGYDVHWYQQLPGTAPKLLIYGNTNRPSGVPDRFSGSKSGTSASLAITGLQAEDEADYYCQSYDSSLSDSYVFGTGTKVTVLG | 0.0754 nM |  |  |
| mAb10985 (antibody, V domains shown) VH: EVQLVESGGGLVQPGRSLRLSCAASGFTFDDYAMHWVRQAPGKGLEWVSGISWNRGSIGYADSVKGRFTISRDNAKNSLYLQMSSLRAEDTALYYCAKDGERWDSVVVPSARNGMDVWGQGTTVTVSS VL: QSVLTQPPSVSGAPGQRVTISCTGSSSNIGAGYDVHWYQQLPGTAPKLLIYGNSNRPSGVPDRFSGSKSGTSASLAITGLQAEDEADYYCQSYDSSLSGSYVFGTGTKVTVLG | 0.0696 nM and 0.0411 nM |  |  |
| mAb10939 (antibody, V domains shown) VH: EVQLVESGGGLVQPGGSLRLSCAASGLTVSSNYMNWVRQVPGKGLEWVSVIYSGGSKFYVDSVKGRFTISRHNSKNTLYLQMNSLRPEDTAVYYCTRDAQYYGMDVWGQGTTVTVSS VL: DIQMTQSPSSLSASVGDRVTITCRASQSISTYLHWYQQKPGEAPKLLIYAASSLQSGVPSRFSGSGSGTDFTLTISSLQPEDFATYYCQQSYSTPPEIFGQGTKLEIKR [mAb10939, listing 1 of 2 here] | 0.175 nM and 0.263 nM |  |  |
| mAb10939 (antibody, V domains shown) VH: EVQLVESGGGLVQPGGSLRLSCAASGLTVSSNYMNWVRQVPGKGLEWVSVIYSGGSKFYVDSVKGRFTISRHNSKNTLYLQMNSLRPEDTAVYYCTRDAQYYGMDVWGQGTTVTVSS VL: DIQMTQSPSSLSASVGDRVTITCRASQSISTYLHWYQQKPGEAPKLLIYAASSLQSGVPSRFSGSGSGTDFTLTISSLQPEDFATYYCQQSYSTPPEIFGQGTKLEIKR [mAb10939, listing 2 of 2 here] |  | 33900 | 32900 |
| mAb10998 (antibody, V domains shown) VH: EVQLVESGGGLVHPGGSLRLSCAASGLTVSSNYMSWVRQAPGKGLEWVSVIYSGGSTYYADSVKGRFTISRHNSKNTLFLQMNSLRAEDTAVYYCARDRPITGTTLDVWGQGTTVTVSS VL: DIQMTQSPSSLFASVGDRVTITCRASQSISSYLNWYQQKPGKAPKLLIYAASSLQSGVPSRFSGSGSGTDFTLTISSLQPEDFAFYYCQQTYSTPPITFGQGTRLEIKR | 4.3 nM |  |  |
| mAb10956 (antibody, V domains shown) VH: EVQLVESGGGLVQPGGSLRLSCAASGLTVSSNYMSWVRQAPGKGLEWVSVIYSGGSTFYADSVKGRFTISRDNSKNTLYLQMNSLRAEDTAVYYCARDLIKYGMDVWGQGTTVTVSS VL: not shown | 0.185 nM |  |  |
| mAb10969 (antibody, V domains shown) VH: QVQLVESGGGVVQPGRSLRLSCAASGFTFSSYAMHWVRQAPGKGLEWVAVISYDGSNKYYADSVKGRFTISRDNSKNTLYLQMNSLRAEDTAVYYCARDGRTITMVRGVIDDAFDIWGQGTMVTVSS VL: not shown [mAb10969, listing 1 of 2 here] | 0.215 nM |  |  |
| mAb10969 (antibody, V domains shown) VH: QVQLVESGGGVVQPGRSLRLSCAASGFTFSSYAMHWVRQAPGKGLEWVAVISYDGSNKYYADSVKGRFTISRDNSKNTLYLQMNSLRAEDTAVYYCARDGRTITMVRGVIDDAFDIWGQGTMVTVSS VL: not shown [mAb10969, listing 2 of 2 here] |  | 31400 |  |
